Laboratory results: US20190177422A1 (SORRENTO THERAPEUTICS, published 2019)

T1: OX40 on OX40+ HEK293-NFkB-luciferase reporter stable cells (UniProt P43489 29-277)
T1 sequence (looked up): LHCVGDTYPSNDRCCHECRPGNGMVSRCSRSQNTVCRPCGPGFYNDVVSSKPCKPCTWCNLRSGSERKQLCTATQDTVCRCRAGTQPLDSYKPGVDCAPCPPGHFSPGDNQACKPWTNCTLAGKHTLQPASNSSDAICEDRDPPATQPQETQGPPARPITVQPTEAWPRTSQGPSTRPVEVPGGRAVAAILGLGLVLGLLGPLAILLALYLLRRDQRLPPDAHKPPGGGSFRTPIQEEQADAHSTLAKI


target: T1, OX40 on OX40+ HEK293-NFkB-luciferase …; assay: cell-based or functional assay

luciferase activity (RLUs) of OX40+ HEK293-NFkB-luciferase reporter cells, ~6 h stimulation, antibody at 20 µg/ml | Binder
> 50 % of signal observed with purified rhOX40L+anti-His | OX1C4 (antibody, V domains shown) VH: EVQLVESGAEVKKPGASVKVSCKTSGYTFTGYYLHWVRQAPGQGLEWMGIINPGDGSTRNAQKFEGRVTMTRDTSTSTVYMELSSLSPEDTAVYYCARDLEYIGSGSLSWFDPWGQGTLVTVSS VL: LPVLTQPASVSGSPGQSITISCSGTSSDFLTYDLVSWYKQQPGKAPKLMIYDVNKRPSGVSDRFSGSKSGNTASLTISGLQAADEADYYCSSYTSSSTPYVFGTGTKVTVL
> 50 % of signal observed with purified rhOX40L+anti-His | OX1D9 (antibody, V domains shown) VH: QVQLVQSGAEVKKPGASVKVSCKASGYTFTSYGISWVRQALGQRLEWLGWINAGDGETKYSPKFQGRVTITRDTSASTAYMDLSGLTSEDTAVYYCARDFLSTMDYWGQGTLVTVSS VL: DVVMTQSPSSLSASVGDRVTITCQASQDISNYLNWYQQKPGKAPKLLIYDASNLETGVPSRFSGGGSGTDFTFTISSLQPEDIATYYCQQFDNLPYTFGQGTKVEIK
> 50 % of signal observed with purified rhOX40L+anti-His | OX1B2 (antibody, V domains shown) VH: QVQLVQSGAEVKKPGASVKVSCKASGYTFTSYYMHWVRQAPGQGLEWMGIINPSGGSTSYAQKFQGRVTMTRDTSTSTVYMELSSLRSEDTAVYYCARDYYDSSGYSDYGMDVWGQGTTVTVSS VL: DIVMTQSPSSLSASVGDRVTITCRASQSISSYLNWYQQKPGKAPKLLIYAASSLQSGVPSRFSGSGSGTDFTLTISSLQPEDFAIYYCQQNYNTRQVTFGQGTRLEIK
> 50 % of signal observed with purified rhOX40L+anti-His | OX4D7 (antibody, V domains shown) VH: QVQLVQSGAEVKKPGASVKVSCKASGYTFTSYYMHWVRQAPGQGLEWMGIINPSGGSTSYAQKFQGRVTMTTDTSTSTAYMELRSLRSDDTAVYYCARDPYSSSWYGAEYFQHWGQGTLVTVSS VL: QSVLTQPRSVSGSPGQSVTISCTGTSSDGGDYNYVSWYQQHPGQAPKLLIYEVSNRPSGVSNRFSGSKSGNTASLTISGLQAEDEADYYCSSYTSSSTLVVFGGGTKLTVL
